# Results: the DeepSol protein solubility set
# Assay: soluble on expression in E. coli; label from the status in PepcDB or PDB records
row,Sequence,soluble on expression in E. coli
1,SKEHQAVSLEAARQSLVLLKNETNLLPLSKSIRSIAVIGPNANEQTQLICRYGPANAPIKTVYQGIKELLPHTEVIYKKGCDIIDPHFPESEILDFPKTAEEVQLMEEAIRAAKQAEVVVMVLGGNELTVREDRSRTSLNLPGRQEELLKAVCATGKPIILVMLDGRASSINYAAAHIPAILHAWFPGEFCGQAVAEALFGDYNPGGRLAVTFPKSVGQIPFAFPFKPGSDESSSTSVYGALYPFGHGLSYTTF,not soluble
2,MAYNSNSNNNNNNIVVVFDFDKTIIDVDSDNWVIDELGFTDLFNQLLPTMPWNTLMDRMMKELHDQGKTIEEIKQVLRTIPIHPRVVPAIKSAHDLGCELRIVSDANMFFIETIVEHLGISELFSEINSNPGYVDERGTLKISPYHDFTKSPHSCSCGTCPPNMCKGLIIERIQQSLAKEGKKKMIYLGDGAGDYCPSLKLNTEDYVMPRKNFPVWDLISQNPMLIKAAIREWTDGQSMEMILIGTIEEIRLEEEKEKMLTSAENNCKMQTISIGINNVHHEPILPRALRVSQSS,soluble
3,FAEDPSPYVLLDRDLTMIWANAAYLRATGLARDEVVGRRMFDVFPAEAESIPDQMLRASLRRAVEQGRPDHLPLIPYPIRNQDGRMEERFWSATNTPIKDAEGHVEFILQNTNDIT,not soluble
4,MPLYRTYIEGEFLLGIWKSDETTEQLLASLEHKDWYREKLAVLSEKRKHEWLSVRVLLKALCGEEKEIAYYSSGRPYLKDGSRYISISHTRGYVAVALHSSCEVGMDIEQYGTRVRKVASRFIRSDEEPAMMEGDEVYALLLHWSAKEALFKLMGVEEVDFIRHLRIFPFSLSEEGEFEACEYRTGRQERYRVRYVTHPDFVLTWIIK,not soluble
5,MTKSLFRQSFLFDSLDLDHPMVAQTVRTEQGVTLKLHQRGVLEVIPAQTDAATKNMVISCGIHGDETAPMELLDKWIDDIVSGFQPVAERCLFIMAHPQATVRHVRFIEQNLNRLFDDKPHTPSTELAIADNLKVLLRQFFANTDEHSRWHLDLHCAIRGSKHYSFAVSPKARHPVRSRSLMQFIEQAHIEAVMLSNAPSSTFSWYSAEHYAAQALTLELGQVARLGENLLDRLLAFDLAMRDLISRHKPEHLPRKSVMYRVSRTIVRLHDDFDFRFSDDVENFTAFMHGEVFGHDGDKPLMAKNEGEAIVFPNRKVAIGQRAALMVCKVNTRYEDDQLVYDLEHHHHHH,soluble
6,GPGSMRPNVMLTIPKNTLQVFDMGLDFRSYLSRVDVNGLPVLGNVVSYEASKLTEVFTPTVGLLVTILHMLAHCTSSCSAVAWLKAYDAIQKMYIENSEEENTEAVRYAVEARAAIKDYLTGDAVPGTNLLCEKLLTLLDQQSGIHGSQAPSQRKVPREPKGAFCNLHLSDQKCYQDFACNQLHLQEVKTVRHRKIFYMRLIEVLKAEKRSRQQIRHRIKDSVFFARYGNKVTVQCQGKWIPFFKTVYTDGRLEQALRTQHFACGDSACADENCLGIHPQDRRVTTSSKLMDLNNPDVVLQQIEEEAERHLSMEGAFNDHEAEHISAAASSSSMPSPTSEMWRNTVREYVRQTGIPQVEADESLLRTLQDANVLATPTASTESLTPLLDELDMRTFSSSSPVREHPNAEIG,not soluble
7,MSRLQLAIEERDEAIARAKHMEMSLKVLENINPEENDMTLQELLNRINNADTGIAIQKNGAIIVDRIYKTKECKMRITAEEMSALIEERDAALSKCKRLEQELHHVKEQNQTSANNMRHLTAENNQERALKAKLLSMQQARETAVQQYKKLEEEIQTLRVYYSLHKSLSQEENLKDQFNYTLSTYEEALKNRENIVSITQQQNEELATQLQQALTERANMELQLQHAREASQVANEKVQKLERLVDVLRKKVGTGTMRTVI,soluble
8,MNFIFDIDGTICFDGCSIDSSIKQRLFKLRQANHNVIFASARPIRDLLPVIPEFADDTLIGGNGSIISKNGQIEIVSVINEHDISLIKKIIKKYQLSYIIDDKFNYASNLDSNNELYQRIDPDGKAQSLDMDEIRNPIKAILLNIDNKDFDMIAHQLVSQSHGIELIRHYSESYIDVTARGVDKYTTIQYILGTNSDYIAFGNDHNDVHMLEHASQGYFVTNQFIEHTSFFKNKNITVIDDTIYAICEVLDRYL,not soluble
9,MHHHHHHSSGVDLGTENLYFQSNAMKNIEKLEQSLTYEFKDKNLLIHALTHKSFKKSYNNERLEFLGDAVLDLVVGEYLFHKFAKDAEGDLSKLRAALVNEKSFAKIANSLNLGDFILMSVAEENNGGKEKPSILSDALEAIIGAIHLEAGFEFAKTIALRLIEKNFPQIDAKILIKDYKTKLQEITQGKIGQTPQYETVRAFGPDHLKQFEIALMLDGKELARAIAGSKKEAQQMAAKIALEKLGAL,soluble
10,MSTETDSILAAFEKFNTIIIHRHINPDPDAIGSQTGLALLLRAAYPAKTIYTAGPAAPDLAWIGPQQQVSAEAYTGALVVVIDTSNRERIAGDHFDQGAMLIKIDHHLDEDQLGTINWVDTHASSASEMVWDLVRHSPQLQLTKAAATALYAGIIGDTGRFLYDLTTARTHQAAADLLATGIDAAAIGRQEDQFPENVGRLIGWALENVKITDTGAGSLLITKAVLAQFGLAYGEEQRAVGNIGKLASIDRWVVFTERTDGSYRVELRGKTKEINTLAVQHGGGGHPLASGAVADNAAELHAIEEELASLLEHHHHHH,soluble
11,MGSDKIHHHHHHMFAQVHYPESLSGEELDEYLFKGWFRNGQRIFTTNFLNFDQKIYSAVWLRIHLQSIKSIHALDKLAKRNSRFKITIQPASITPEKEALFEQYKTGVDFTASQSLHTLLFGDSTVDIYNTLELLIHDGNKLIGVGYFDTGKDCAAGITSFYDHAYKKNSLGKYIIMQKIKYCIDQQYSYFYPGYFVPNYPAFDYKLSIGTETLEYLSLSKNTWVSIQAFVTNEDPFQVMLKKLKEFQSVCANYGIEQQIYQYSFFEANIIPSLRGLHLFDFPVFVYLFSEQEDVVNPMVVFDVVNQCYHLIECRSIWKADESIQEEGFYSSHLLKMEKHICSALTATEMSTIIMRSIEESSTFR,not soluble
12,MSLEHLHELVGSVDVVLSDIWGVVHNGLESFPDACAALKTARDQGRTVVLITNAPRPADSVQRQLRKLDVPDDCYDAIVSSGDLTRIYVAEHPGQSIYWLGPDRDNSIYRGLDAVLTPLEKADYIICTGPFDDETESAEDYREMMGQALERKLTLVCANPDIVVERGDRLIYCAGAIAELYRELGGDVIFYGKPHRPIYDRAMALAREIRGVDTPVQRVLAIGDSVRTDLAGAQGYGIDLLFVTRGIHADAFEGIDRLDTAAVNELFGHPPLALTRELREGHHHHHH,soluble
13,LDRHLQPLLLELATLTRAENSGVAPKVSDERKELDRLLAEQEGNRRALTAANVAVDDMELEIRRVQEDERKLRRREAEGKRQLAAEVDEEKRRDIKHDIYAAKSRIADLMSELQEAHNEIHALRNNRDLNQQRVSDTEARIDKARAAVDALGEDTTAADRHERIETLRLELPSDVVAQFDEQRDENEVGVASFNNRSCGGCFIILPPADISIIRRAPMNVLPQCPDCGSYLVRQG,not soluble
14,MGSDKIHHHHHHMAGKQLLLMDGIHKRFGPLIVSAGVTLDVEENEIHALLGENGAGKTVLMSILCGVLSPNEGQIVFKGRPLKLGSPREAIKHRIGMVHQHFMLVPNLTVAENYVLGQGSPFSMIRDMRAVHARILELSDRYGLDVAPDALVSSLSVGERQRVEILKVLYHGIELLILDEPTAVLTPQETDRLLHLLRQLVADGKTVIFISHKLDEVMRVSDRVSVMRDAKVVRTVKTSETTARELARMMVGRDVLMYLPRAPLEPGRVVLSVEHLSCDGEAGLPALRDVSFEVRANEIVGIAGVSGNGQSELALALTGLLPVASGSVTLDGTQLAGLSSYEINQLPMAHIPEDRHRMGIVLPLPLTENVILQRFDKPPFSSRGLLDLNEITRQTRDLMRRFKVKASGPGDRIRNLSGGNQQKLVVGRELDRRFDFLLINQLTRGIDIGATELVMHKILEQRSAGKAILLISTELEELFTLSDRILVMYEGRLVGEIPPDRSRLEEIGLLMAGKSPLSAA,not soluble
15,MPLLDSFKVDHTKMNAPAVRIAKTMLTPKGDNITVFDLRFCIPNKEILSPKGIHTLEHLFAGFMRDHLNGDSIEIIDISPMGCRTGFYMSLIGTPNEQKVSEAWLASMQDVLGVQDQASIPELNIYQCGSYTEHSLEDAHEIAKNVIARGIGVNKNEDLSLDNSLLKGSHHHHHH,soluble
16,MINSSEGKSDNKIIEKATQILSKYPLCDSCLGRCFARLGYGLENKERGRAIKISLMLILDEKIKNHEIGDLSSIKRIMENLGPIAEKWYKLYFSSEFHSHPCYLCQNKIEDIKEDFSDKAFKLLSGLGVKSYVLGVELDEETKKKESKIIEEFTLMYYESIKHEIKREVGKTLSKRGYPPNMDNPEVEIVYRLSDLQVFIISKNIRTFYVYNRLNRNLPISSWFSKQGNEGLNTLLQRKIVFAFSEPTTVRILADYPIVIENEGRDKIDVGGYYIFKVMTVGKKELQAISAAKPTMRKYRVTVYSTSSLSDAIRVYGNIYDLYIDAKSFSELNEKLSKLKSQYEIIVLSVDLIDVKGRIKDIIENYLKSFLEHHHHHH,not soluble
17,MSLSEIDQVSYNFHIRPILSDKCFACHGPDANKREADLRLDTEEGAFKALKESPGKFALVSGKPEESELFHRITSEDPGELMPPTESNLVLSDTEIGLIKKWIEQGAEYEPHWAFTKAEKPELPSENEWAVNEIDRFVYQKMVEKGLEPNPKADPQELIKRASLDITGLPPSPEILDQYSDLSNDAYQNLLDGLLADPSFGEKLGVLWMDISRYADSYGYQDDNIRSQWPYRDWVIHAFNENMPYDQFITYQLAGDLLPNATKEQILATAFNRNHKYTEEGGVIDEEYRIEYVLDKTNTFSKGVLGITMECAQCHDHKYDPFSQKDYYELFAFFNNTPEKGYEGDVSVSKPAKTPILWVDQEGHHHHHH,soluble
18,GMSQTTVVNGVNVDQLMATIEQIKAKPEIAQFKFRATNQWMGGTHNQATIKDFYGACAEDDTRKPMVFDLDEPPVLLGENRGANPVEYLLVALSGCLTTSLVAHAAARGIALRGVKSRYEGDIDLRGFLGLSEEVPVGYREIRVFFSIDADLTDGQKEELIRMAQKYSPVYNTVAKPVPVAVLLDRG,soluble
19,MSLTKFHGVFPPVPTIVNAQGELDKVGMATLLDHLIASKVNGVLLLGSGGEFCHMTNALRLETAEFCVRHINRRIPVLLGISSTSTQEVIEYGQHADRLEVDAVLVLNPYYARLTDEYIYHHFKTVANNIKSPVILYNFPALTGQDLSVDLITRLAQDHPNIIGIKDTVDNISHIREIINNVRPVRPDFVIFSGYDEYMMDTLILGGNGGIPATANFAPQLTCGIYRAWCEKEYETMFGLQRRLSALSTIYSLDSPFFGIIKKAIQLSGVDISTHVMPPVLPANEEHISNLKQILQRAGLEGHHHHHH,soluble
20,MAHHHHHHMSDVSIYALRGTSALYEVLGVSRNATQREIRQGYYRLAVLYHPDKNPEGSDIFKEVCFAHGILSDPEQRALYDSGTLRAELESRARACDPSMDPGVELSPEDLRVFVDRVRQTQEANRQVQSTFELRREEEMKRRAEFDAKNPSFKAEYEQARHLRQHGCRGSTSAAHARASATADLSKTVPPKVRTSAEVLAELQREEEERLYGNPGIGSVDSSSSKRAESDGLSTKHHMMSHYRATHREASGAESLSNSYSGGSTAATVRRRQLETTRLPFVRAHCETPQYSETISATVQAYANYDYLTFVEGGSMDHGELEGAIMADALGNYDRHH,not soluble
21,KIIEEFIDSLFSGVVETSETKQLKADLLANAEDRYEDLLSQGKSENEAIGTIISEFGTIDELMEELNLENKQVDEPNDS,not soluble
